Where “and” joins values, the source holds several entries; their conditions need not be identical. Equal values may be shown once.

In data set [1] the target is Sis10b M20E/L24E/L27E/F60E (Sulfolobus islandicus REY15A). As to the kind of experiment: cross-linking; 10 μg protein cross-linked with 0.5 mM DSP, with or without 5 μg of a 25-bp dsRNA, 30 min at 25 or 55°C, 20 mM potassium phosphate pH 7.6, 50 mM KCl; 15% SDS-PAGE, Coomassie stain.
Data set [2] addresses N-terminally truncated Sis10b (ΔN12) (Sulfolobus islandicus REY15A). The description is as above.
Data set [3] concerns the target T1, Sis10b wild-type (Sulfolobus islandicus REY15A, UniProt F0NHH1 1-97).
T1 sequence: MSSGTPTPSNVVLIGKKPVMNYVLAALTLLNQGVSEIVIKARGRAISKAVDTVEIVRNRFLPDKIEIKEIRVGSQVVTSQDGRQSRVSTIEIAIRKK
As to the kind of experiment: EMSA; 55°C; EMSA: 20 mM HEPES-NaOH pH 7.0, 1 mM DTT, 100 ug/ml BSA, 6% glycerol, 30 min at 25, 37 or 55°C; gel in 0.5x TBE at the same temperature. Particulars: protein: recombinant, tags: none (NdeI/XhoI pET30a, stop codon in reverse primer), chain copies: 2. On the technique in general: In EMSA bound probe runs differently from free probe, usually more slowly.

As a reminder, the stoichiometry N is the number of molecules, sites or subunits per partner or assembly. For the molecule Sis10b M20E/L24E/L27E/F60E, the stoichiometry N in data set [1] is 5 and 3.

Turning to “N-terminally truncated Sis10b (ΔN12) (domain or fragment)”, the stoichiometry N in data set [2] was 2 and 4.

B1: 44-bp dsRNA (dsRNA)
RNA 1: UGACUUCCGCGCGUGAGCUCGAUUCCACAUACCCUAAAUCGCUC
RNA 2: GAGCGAUUUAGGGUAUGUGGAAUCGAGCUCACGCGCGGAAGUCA
Broadly, the Kd is the constant that tells how readily two partners part at equilibrium. Consider B1, for which the Kd in data set [3] (label: 5' 32P on top strand, blunt) was around 29.4 nM.

UGACUUCCGCGCGUGAGCUCGAUUCCACAUACCCUAAAUCGCUC (ssRNA) [44-nt ssRNA (t)]: the Kd in data set [3] (label: 5' 32P, single strand) is around 5.3 nM.

For the origin of these results see paper PMC7498313, “The Sac10b homolog from Sulfolobus islandicus is an RNA chaperone”.
